Test results reported in the Human Domainome abundance scans (Beltran et al. 2025).

B1: Histone H1t, residues 44 to 112; numbered along this chain, P22492 (parent)
chain: VSKLITEALSVSQERVGMSLVALKKALAAAGYDVEKNNSRIKLSLKSLVNKGILVQTRGTGASGSFKLS

Variants of: B1
Experiment: abundance fitness (aPCA) (normalised: wild type 0, dead -1); higher = more abundant; growth selection in yeast, the domain comes from the species named
Settings: Homo sapiens

Abundance fitness of substitutions, site by site:
A30: W -0.15; P -0.364; L -0.224; N -0.271; E -0.404; I -0.318; F -0.368; C -0.136; T -0.048
A28: W -0.327; M -0.089; D -0.258; E -0.197; F -0.231; I -0.059; V -0.098; G -0.106; R 0.003; Y -0.124; C -0.175; S -0.114; L -0.087; N -0.18
G17: M -0.296; V -0.1; K 0.157; N 0.015; P -0.484; Y -0.4; W -0.49; L -0.478; A -0.07; D -0.398; Q -0.075; T -0.134; F -0.465; R -0.025; I -0.254; C -0.17; S -0.24; H -0.116
Y32: P -0.228; I 0.022; L 0.032; W -0.116; N -0.114; H -0.052; T -0.193; Q -0.121; S -0.14; C -0.391; R -0.055; K 0.064; F -0.072
L20: F 0.013; Y 0.01; W -0.008; E -0.046; C -0.205; R -0.537; A -0.234; S -0.561; T -0.351; G -0.412; N -0.724; Q -0.5; K -0.239; V -0.048; D -0.346; I -0.026; P -0.841; H -0.465; M -0.022
K24: C -0.579; S -0.656; N -0.359; G -0.485; P -1.22; W -0.533; E -0.363; I -0.738; F -0.494; R -0.161; D -1.33; L -0.418; Y -0.164; M -0.295; T -0.267; H -0.694
R15: M -0.364; V -0.45; H -0.061; Q -0.143; I -0.312; F -0.258; T 0.05; E 0.084; G -0.15; Y -0.338; L -0.501; P -0.163; D 0.096; S -0.089; K 0.234; N 0.063
V34: H -0.4; K -0.104; E -0.346; P -0.212; I -0.123; R -0.268; M -0.098; T -0.068; A -0.171; C -0.179; S -0.199; G -0.306; Q -0.309; W -0.252; L -0.214; D -0.327; Y -0.472
K25: D -0.158; S -0.23; L -0.862; N -0.171; I -0.697; A -0.225; G -0.231; E -0.085; W -0.602; T -0.352; P -1.34; H -0.325; F -0.892; V -0.627; Y -0.827; M -0.785
D33: K -0.119; S -0.021; F 0.243; N -0.254; T -0.025; H 0.143; E 0.2; P -0.214; I -0.121; A 0.063; Y 0.144; R 0.036; M 0.115; L -0.034; V 0.029; Q 0.042; W 0.259
V16: K -0.16; P -0.416; A 0.037; R -0.718; I -0.058; N 0.042; F -0.224; D 0.347; H -0.031; T -0.024; M -0.076; Y -0.045
